Source: US20230241168A1 (ALPINE IMMUNE SCIENCES, published 2023)
Substitutions are numbered along the chain they refer to. Names may count otherwise. Each block holds one binder with its values, some of them ahead of it.

How the values were obtained:
Assay in all cases: cell-based or functional assay
recombinant human BAFF = recombinant human BAFF (human, UniProt Q9Y275 134-285)
recombinant human APRIL = biological target: T1, recombinant human APRIL (human, UniProt O75888 105-250, limits assumed)
T1 sequence (looked up): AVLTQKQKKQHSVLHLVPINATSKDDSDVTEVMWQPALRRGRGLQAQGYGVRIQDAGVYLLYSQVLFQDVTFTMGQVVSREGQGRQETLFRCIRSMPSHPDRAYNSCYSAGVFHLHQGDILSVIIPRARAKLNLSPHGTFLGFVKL

human CD86 = biological target: T2, human CD86 (human, UniProt P42081 24-329)
T2 sequence (looked up): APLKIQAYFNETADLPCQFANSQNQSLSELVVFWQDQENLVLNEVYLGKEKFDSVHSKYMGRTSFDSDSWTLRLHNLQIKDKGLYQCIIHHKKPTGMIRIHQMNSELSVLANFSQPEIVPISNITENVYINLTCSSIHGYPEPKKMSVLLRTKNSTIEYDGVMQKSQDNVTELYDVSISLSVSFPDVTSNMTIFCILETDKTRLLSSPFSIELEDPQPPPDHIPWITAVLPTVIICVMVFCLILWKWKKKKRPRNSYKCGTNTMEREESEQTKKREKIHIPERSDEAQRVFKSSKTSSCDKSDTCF

human CD80 = biological target: T3, human CD80 (human, UniProt P33681 35-288)
T3 sequence (looked up): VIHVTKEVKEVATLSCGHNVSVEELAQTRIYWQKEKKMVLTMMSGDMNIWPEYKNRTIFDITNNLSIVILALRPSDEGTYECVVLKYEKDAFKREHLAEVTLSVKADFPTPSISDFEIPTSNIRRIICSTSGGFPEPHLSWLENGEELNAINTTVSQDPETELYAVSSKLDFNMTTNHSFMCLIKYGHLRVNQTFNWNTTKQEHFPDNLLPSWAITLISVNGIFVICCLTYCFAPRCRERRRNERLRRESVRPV

IC50 (nM) BAFF (recombinant human BAFF): 0.396 nM
IC50 BAFF (Δ Parental vTD) (recombinant human BAFF): 0.4 ratio
IC50 (nM) APRIL (recombinant human APRIL): 0.689 nM
IC50 APRIL (Δ Parental vTD) (recombinant human APRIL): 0.7 ratio
B1: BCMA 357 (G4S)3 CTLA-4 92 GSG4S Fc (Fc fusion)
chain: LQMAGQCSQNEYFDSLLYACIPCQLRCSSNTPPLTCQRYCNASVTNSVKGTNAGGGGSGGGGSGGGGSGGGGSKAMHVAQPAVVLASSRGIASFVCEYASPWKATEVRVTVLRQADSQVTEVCAATYMMGSELTFPDDSICTGTSSGNQVNLTIRGLRAMDTGLYICKVEQMYPPPYLLGIGNGTQIYVIDPEPCPDSDGSGGGGSEPKSSDKTHTCPPCPAPEAEGAPSVFLFPPKPKDTLMISRTPEVTCVVVDVSHEDPEVKFNWYVDGVEVHNAKTKPREEQYNSTYRVVSVLTVLHQDWLNGKEYKCKVSNKALPAPIEKTISKAKGQPREPQVYTLPPSRDELTKNQVSLTCLVKGFYPSDIAVEWESNGQPENNYKTTPPVLDSDGSFFLYSKLTVDKSRWQQGNVFSCSVMHEALHNHYTQKSLSLSPG

IC50 (nM) BAFF (recombinant human BAFF): 3.75 nM
IC50 BAFF (Δ Parental vTD) (recombinant human BAFF): 3.8 ratio
IC50 (nM) APRIL (recombinant human APRIL): 0.63 nM
IC50 APRIL (Δ Parental vTD) (recombinant human APRIL): 0.6 ratio
B2: CTLA-4 92 (G4S)4 BCMA 357 GSG4S Fc (Fc fusion)
chain: KAMHVAQPAVVLASSRGIASFVCEYASPWKATEVRVTVLRQADSQVTEVCAATYMMGSELTFPDDSICTGTSSGNQVNLTIRGLRAMDTGLYICKVEQMYPPPYLLGIGNGTQIYVIDPEPCPDSDGGGGSGGGGSGGGGSGGGGSLQMAGQCSQNEYFDSLLYACIPCQLRCSSNTPPLTCQRYCNASVTNSVKGTNAGSGGGGSEPKSSDKTHTCPPCPAPEAEGAPSVFLFPPKPKDTLMISRTPEVTCVVVDVSHEDPEVKFNWYVDGVEVHNAKTKPREEQYNSTYRVVSVLTVLHQDWLNGKEYKCKVSNKALPAPIEKTISKAKGQPREPQVYTLPPSRDELTKNQVSLTCLVKGFYPSDIAVEWESNGQPENNYKTTPPVLDSDGSFFLYSKLTVDKSRWQQGNVFSCSVMHEALHNHYTQKSLSLSPG

IC50 (nM) BAFF (recombinant human BAFF): 0.765 nM
IC50 BAFF (Δ Parental vTD) (recombinant human BAFF): 0.8 ratio
IC50 (nM) APRIL (recombinant human APRIL): 0.687 nM
IC50 APRIL (Δ Parental vTD) (recombinant human APRIL): 0.7 ratio
B3: CTLA-4 92 GSG4S Fc (G4S)5 BCMA 357 (Fc fusion)
chain: KAMHVAQPAVVLASSRGIASFVCEYASPWKATEVRVTVLRQADSQVTEVCAATYMMGSELTFPDDSICTGTSSGNQVNLTIRGLRAMDTGLYICKVEQMYPPPYLLGIGNGTQIYVIDPEPCPDSDGSGGGGSEPKSSDKTHTCPPCPAPEAEGAPSVFLFPPKPKDTLMISRTPEVTCVVVDVSHEDPEVKFNWYVDGVEVHNAKTKPREEQYNSTYRVVSVLTVLHQDWLNGKEYKCKVSNKALPAPIEKTISKAKGQPREPQVYTLPPSRDELTKNQVSLTCLVKGFYPSDIAVEWESNGQPENNYKTTPPVLDSDGSFFLYSKLTVDKSRWQQGNVFSCSVMHEALHNHYTQKSLSLSPGGGGGSGGGGSGGGGSGGGGSGGGGSLQMAGQCSQNEYFDSLLYACIPCQLRCSSNTPPLTCQRYCNASVTNSVKGTNA

IC50 (nM) BAFF (recombinant human BAFF): 0.415 nM
IC50 BAFF (Δ Parental vTD) (recombinant human BAFF): 0.4 ratio
IC50 (nM) APRIL (recombinant human APRIL): 0.582 nM
IC50 APRIL (Δ Parental vTD) (recombinant human APRIL): 0.6 ratio
B4: BCMA 357 GSG4S Fc (G4S)3 CTLA-4 92 (Fc fusion)
chain: LQMAGQCSQNEYFDSLLYACIPCQLRCSSNTPPLTCQRYCNASVTNSVKGTNAGSGGGGSEPKSSDKTHTCPPCPAPEAEGAPSVFLFPPKPKDTLMISRTPEVTCVVVDVSHEDPEVKFNWYVDGVEVHNAKTKPREEQYNSTYRVVSVLTVLHQDWLNGKEYKCKVSNKALPAPIEKTISKAKGQPREPQVYTLPPSRDELTKNQVSLTCLVKGFYPSDIAVEWESNGQPENNYKTTPPVLDSDGSFFLYSKLTVDKSRWQQGNVFSCSVMHEALHNHYTQKSLSLSPGGGGGSGGGGSGGGGSGGGGSKAMHVAQPAVVLASSRGIASFVCEYASPWKATEVRVTVLRQADSQVTEVCAATYMMGSELTFPDDSICTGTSSGNQVNLTIRGLRAMDTGLYICKVEQMYPPPYLLGIGNGTQIYVIDPEPCPDSD

CD86 IC50 (human CD86): 11.9 nM
CD86 IC50 (Δ Parental CTLA-4) (human CD86): 1.5 ratio
CD80 IC50 (human CD80): 26.1 nM
CD80 IC50 (Δ Parental CTLA-4) (human CD80): 0.8 ratio
IC50 (nM) BAFF (recombinant human BAFF): 0.282 nM
IC50 (nM) APRIL (recombinant human APRIL): 1.27 nM
B5: CTLA-4 186GSG4S-Fc-(G4S)4-BCMA 381 (Fc fusion)
chain: KAMHVAQPAVVLASSRGIASFVCEYASPWKATEVRVTVLRQADSQVTEVCAATYMMGNELTFLDDSICTGTSSGNQVNLTIQGLRAMDTGLYICKVEQMYPPPYLLGIGNGTQIYVIDPEPCPDSDGSGGGGSEPKSSDKTHTCPPCPAPEAEGAPSVFLFPPKPKDTLMISRTPEVTCVVVDVSHEDPEVKFNWYVDGVEVHNAKTKPREEQYNSTYRVVSVLTVLHQDWLNGKEYKCKVSNKALPAPIEKTISKAKGQPREPQVYTLPPSRDELTKNQVSLTCLVKGFYPSDIAVEWESNGQPENNYKTTPPVLDSDGSFFLYSKLTVDKSRWQQGNVFSCSVMHEALHNHYTQKSLSLSPGGGGGSGGGGSGGGGSGGGGSLQMAGQCSQNEYFDALLYACIPCQLRCSSNTPPLTCQQYCNASVTNSVKGTNA

CD86 IC50 (human CD86): 10.8 nM
CD86 IC50 (Δ Parental CTLA-4) (human CD86): 1.3 ratio
CD80 IC50 (human CD80): 70.1 nM
CD80 IC50 (Δ Parental CTLA-4) (human CD80): 2.1 ratio
IC50 (nM) BAFF (recombinant human BAFF): 0.16 nM
IC50 (nM) APRIL (recombinant human APRIL): 18.4 nM
B6: CTLA-4 186GSG4S-Fc-(G4S)4-BCMA 405 (Fc fusion)
chain: B5 chain with A399S, Y402K, Q422R

CD86 IC50 (human CD86): 9 nM
CD86 IC50 (Δ Parental CTLA-4) (human CD86): 1.1 ratio
CD80 IC50 (human CD80): 32.7 nM
CD80 IC50 (Δ Parental CTLA-4) (human CD80): 1 ratio
IC50 (nM) BAFF (recombinant human BAFF): 0.133 nM
IC50 (nM) APRIL (recombinant human APRIL): 2.37 nM
B7: CTLA-4 186GSG4S-Fc-(G4S)4-BCMA 411 (Fc fusion)
chain: B5 chain with A399S, Y402R, Q422R
